According to patent US20230399409A1 (SHANGHAI HUAOTA BIOPHARMACEUTICAL, published 2023):

Assays:
human IL-36R [1] = target: T1, human IL-36R (human, UniProt Q9HB29 20-575); assay: cell-based or functional assay
T1 sequence (looked up): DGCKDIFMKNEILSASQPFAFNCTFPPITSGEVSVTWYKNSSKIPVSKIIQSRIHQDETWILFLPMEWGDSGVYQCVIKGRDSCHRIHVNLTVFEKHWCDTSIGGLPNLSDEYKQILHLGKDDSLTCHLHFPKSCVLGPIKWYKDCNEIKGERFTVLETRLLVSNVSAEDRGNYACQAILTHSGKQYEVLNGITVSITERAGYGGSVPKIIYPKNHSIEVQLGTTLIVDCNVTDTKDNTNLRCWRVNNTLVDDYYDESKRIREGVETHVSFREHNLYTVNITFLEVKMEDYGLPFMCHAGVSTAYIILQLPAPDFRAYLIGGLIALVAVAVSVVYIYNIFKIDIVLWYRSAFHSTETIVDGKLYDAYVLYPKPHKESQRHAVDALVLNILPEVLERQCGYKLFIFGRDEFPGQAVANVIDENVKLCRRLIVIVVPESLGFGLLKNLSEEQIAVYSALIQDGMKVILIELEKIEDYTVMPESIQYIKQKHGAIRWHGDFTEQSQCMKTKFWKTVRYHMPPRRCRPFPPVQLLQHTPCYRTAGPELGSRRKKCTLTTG

human IL-36R [2] = target: T1, human IL-36R; assay: cell-based or functional assay; remark: listed apart in the source
human IL-36R [3] = target: T1, human IL-36R; assay: cell-based or functional assay; remark: listed apart in the source
human IL-36R [4] = target: T1, human IL-36R; assay: flow cytometry on CHO-K1 cells expressing human IL-36R
monkey IL-36R = target: T2, monkey IL-36R (monkey); assay: flow cytometry on CHO-K1 cells expressing monkey IL-36R
T2 construct: whole, on cells

human IL-36R [5] = target: T1, human IL-36R; assay: cell-based or functional assay; remark: listed apart in the source
human IL-36R [6] = target: T1, human IL-36R; assay: cell-based or functional assay; remark: listed apart in the source
[7] = target: T3, His-tagged human IL-1 Rrp2/IL-1 R6 protein (human, UniProt Q9HB29 20-335); assay: SPR (Biacore 8K), His-tagged antigen captured by anti-His on CM5, antibody as analyte, 1:1 model
T3 construct: Bought reagent; also called Human IL-1 Rrp2/IL-1 R6 Protein, His Tag; ACRO Biosystems IL2-H52H6; not shown: His tag
T3 sequence (looked up): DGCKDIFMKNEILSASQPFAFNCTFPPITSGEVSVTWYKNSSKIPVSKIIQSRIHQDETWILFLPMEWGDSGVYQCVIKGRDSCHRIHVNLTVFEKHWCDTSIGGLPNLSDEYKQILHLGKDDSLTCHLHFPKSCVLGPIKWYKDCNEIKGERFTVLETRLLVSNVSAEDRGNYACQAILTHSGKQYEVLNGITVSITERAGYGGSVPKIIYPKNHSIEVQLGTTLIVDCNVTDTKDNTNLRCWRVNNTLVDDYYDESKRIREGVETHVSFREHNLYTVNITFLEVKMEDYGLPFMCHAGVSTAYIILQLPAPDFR
Method: Series S Sensor Chip CM5 was equilibrated for 20-30 min at room temperature, and then fitted in the instrument. Following the instruction manual for His Capture Kit, an anti-His antibody was immobilized onto the Series S Sensor Chip CM5. An HBS-EP+(10×) solution was diluted 10-fold in ultrapure water as the running buffer. An antigen (His-tagged human IL-1 Rrp2/IL-1 R6 protein) was diluted to 1 μg/ml and 10 μL/min using the running buffer, and loaded during 15 sec to capture around 50 RU of antigen. An antibody sample were diluted to 30 nM, 15 nM, 7.5 nM, 3.75 nM, 1.875 nM, 0.9375 nM, and 0.46875 nM using an equilibration buffer; the running buffer was taken as zero concentration; at 30 μL/min, binding and dissociation were allowed to occur for 120 s and 900 s, respectively; and the chip was regenerated with the glycine solution at pH 1.5. The sample was analyzed by a capture-based single-cycle kinetics program; the corresponding analysis program was selected to analyze the data, and it was confirmed that there was no obvious reference binding; and the Kinetics 1:1 binding model was selected for fitting analysis to acquire the kinetic parameters of the sample.

B1: humanized anti-IL-36R antibody 900527 (antibody, V domains shown)
VH: QVQLVQSGAEVKKPGASVKVSCKASGYTFTSSWMHWAKQAPGQGLEWIGEIHPNSAKTNYNQKFQGRVTMTRDTSISTAYMELSRLRSDDTAVYYCARVDYGKPWFAYWGQGTLVTVSS
VL: QIVLTQSPGTLSLSPGERATLSCRASSSVSSSYLHWYQQKPGQAPRLWIYSTSSRATGIPDRFSGSGSGTDFTLTISRLEPEDFATYYCQQFQSSPLTFGQGTKLEIK
notes: IgG1 (human IgG1 L234A/L235A, human kappa); also called HB0034
For B1, the “IC50, GM-CSF release under IL-36 α stimulation (NCI/ADR-RES cells)” value (human IL-36R [1]) was 0.022 µg/mL, the “IC50, GM-CSF release under IL-36 β stimulation (NCI/ADR-RES cells)” value (human IL-36R [1]) was 0.0174 µg/mL and the “IC50, GM-CSF release under IL-36 γ stimulation (NCI/ADR-RES cells)” value (human IL-36R [1]) was 0.0198 µg/mL. For the same binder, the “IC50, IL-6 release under IL-36 α stimulation (NCI/ADR-RES cells)” value (human IL-36R [1]) was 0.015 µg/mL, the “IC50, IL-6 release under IL-36 β stimulation (NCI/ADR-RES cells)” value (human IL-36R [1]) was 0.0139 µg/mL and the “IC50, IL-6 release under IL-36 γ stimulation (NCI/ADR-RES cells)” value (human IL-36R [1]) was 0.0162 µg/mL. For the same binder, the “IC50, IL-8 release under IL-36 α stimulation (NCI/ADR-RES cells)” value (human IL-36R [1]) was 0.0315 µg/mL, the “IC50, IL-8 release under IL-36 β stimulation (NCI/ADR-RES cells)” value (human IL-36R [1]) was 0.0223 µg/mL and the “IC50, IL-8 release under IL-36 γ stimulation (NCI/ADR-RES cells)” value (human IL-36R [1]) was 0.0198 µg/mL. For the same binder, the “IC50, pNF-κB under IL-36 β stimulation (NCI/ADR-RES cells)” value (“IC50, pNF-κB … (NCI/ADR-RES cells)” below) (human IL-36R [1]) was 71.4 ng/ml, the “HuIL-6 detected in HIF under IL-36β stimulation IC50” value (human IL-36R [2]) was 0.0546 µg/mL and the “HuIL-6 detected in NCI/ADR-RES under IL-36β stimulation IC50” value (human IL-36R [3]) was 0.00887 µg/mL. The EC50 (human IL-36R [4]) was 0.062 µg/mL, the EC50 (monkey IL-36R) was 0.0595 µg/mL and the “HuIL-6 detected in HIF under IL-36α stimulation IC50” value (human IL-36R [5]) was 0.0479 µg/mL. The “pNFκB detected in HIF under IL-36β stimulation IC50” value (human IL-36R [6]) was 0.105 µg/mL, the Kd [7] was 0.0452 nM and the koff [7] was 4.37e-05 s⁻¹. The kon [7] was 967000 M⁻¹ s⁻¹.

B2: humanized anti-IL-36R antibody 900513 (antibody, V domains shown)
VH: QVQLVQSGAEVKKPGASVKVSCKASGYTFTSSWMHWAKQAPGQGLEWIGEIHPNSAKTNYNQKFQGRVTMTRDTSISTAYMELSRLRSDDTAVYYCARVDYGKPWFAYWGQGTLVTVSS
VL: EIVLTQSPGTLSLSPGERATLSCSASSSVSSSYLHWYQQKPGQAPRLWIYSTSNRATGIPDRFSGSGSGTDFTLTISRLEPEDFATYYCQQFQSSPLTFGQGTKLEIK
notes: IgG1; built from the chimeric expression plasmids (human IgG1 L234A/L235A, human kappa)
For B2, the “IC50, GM-CSF release under IL-36 α stimulation (NCI/ADR-RES cells)” value (human IL-36R [1]) was 0.0206 µg/mL, the “IC50, GM-CSF release under IL-36 β stimulation (NCI/ADR-RES cells)” value (human IL-36R [1]) was 0.0184 µg/mL and the “IC50, GM-CSF release under IL-36 γ stimulation (NCI/ADR-RES cells)” value (human IL-36R [1]) was 0.0179 µg/mL. The “IC50, IL-6 release under IL-36 α stimulation (NCI/ADR-RES cells)” value (human IL-36R [1]) was 0.0124 µg/mL, the “IC50, IL-6 release under IL-36 β stimulation (NCI/ADR-RES cells)” value (human IL-36R [1]) was 0.0223 µg/mL and the “IC50, IL-6 release under IL-36 γ stimulation (NCI/ADR-RES cells)” value (human IL-36R [1]) was 0.0121 µg/mL. For the same binder, the “IC50, IL-8 release under IL-36 α stimulation (NCI/ADR-RES cells)” value (human IL-36R [1]) was 0.0398 µg/mL, the “IC50, IL-8 release under IL-36 β stimulation (NCI/ADR-RES cells)” value (human IL-36R [1]) was 0.0221 µg/mL and the “IC50, IL-8 release under IL-36 γ stimulation (NCI/ADR-RES cells)” value (human IL-36R [1]) was 0.018 µg/mL. The “IC50, pNF-κB … (NCI/ADR-RES cells)” value (human IL-36R [1]) was 105 ng/ml, the Kd [7] was 0.0148 nM and the koff [7] was 1.34e-05 s⁻¹. It also gave a kon [7] of 904000 M⁻¹ s⁻¹.

B3: humanized anti-IL-36R antibody 900534 (antibody, V domains shown)
VH: QVQLVQSGAEVKKPGASVKVSCKASGYTFTSSWMHWAKQAPGQGLEWIGEIHPNSAKTNYNQKFQGRVTMTRDTSISTAYMELSRLRSDDTAVYYCARVDYGKPWFAYWGQGTLVTVSS
VL: QIVLTQSPGTLSLSPGERATLSCRASSSVSSSYLHWYQQKPGQAPRLLIYSTSSRATGIPDRFSGSGSGTDFTLTISRLEPEDFATYYCQQFQSSPLTFGQGTKLEIK
notes: IgG1 (human IgG1 L234A/L235A, human kappa)
B3 was tested, and the “IC50, GM-CSF release under IL-36 α stimulation (NCI/ADR-RES cells)” value (human IL-36R [1]) was 0.0202 µg/mL, the “IC50, GM-CSF release under IL-36 β stimulation (NCI/ADR-RES cells)” value (human IL-36R [1]) was 0.0186 µg/mL and the “IC50, GM-CSF release under IL-36 γ stimulation (NCI/ADR-RES cells)” value (human IL-36R [1]) was 0.021 µg/mL. For the same binder, the “IC50, IL-6 release under IL-36 α stimulation (NCI/ADR-RES cells)” value (human IL-36R [1]) was 0.0216 µg/mL, the “IC50, IL-6 release under IL-36 β stimulation (NCI/ADR-RES cells)” value (human IL-36R [1]) was 0.0168 µg/mL and the “IC50, IL-6 release under IL-36 γ stimulation (NCI/ADR-RES cells)” value (human IL-36R [1]) was 0.0176 µg/mL. For the same binder, the “IC50, IL-8 release under IL-36 α stimulation (NCI/ADR-RES cells)” value (human IL-36R [1]) was 0.0304 µg/mL, the “IC50, IL-8 release under IL-36 β stimulation (NCI/ADR-RES cells)” value (human IL-36R [1]) was 0.022 µg/mL and the “IC50, IL-8 release under IL-36 γ stimulation (NCI/ADR-RES cells)” value (human IL-36R [1]) was 0.018 µg/mL. The “IC50, pNF-κB … (NCI/ADR-RES cells)” value (human IL-36R [1]) was 64.9 ng/ml, the Kd [7] was 0.0579 nM and the koff [7] was 5.1e-05 s⁻¹. For the same binder, the kon [7] was 881000 M⁻¹ s⁻¹.

B4: anti-IL-36R chimeric antibody 900497 (antibody, V domains shown)
VH: QVQLQQTGSVLVRPGTSVKLSCKASGYTFTSSWMHWAKQRPGQGLEWIGEIHPNSAKTNYNEKFKGKATLTVDTFSSTAYVDLSSLASEDSAVYYCARVDYGKPWFAYWGQGTLVTVSA
VL: QIVLTQSPTIMSASPGERVTMTCSASSSVSSSYLHWYQQKPGSSPKLWIYSTSNLASGVPARFSGSGSGTSYSLTINSMEAEDAATYYCQQFQSSPLTFGAGTKLGLK
notes: Human-mouse chimera: human IgG1 heavy-chain constant region with L234A and L235A (Eu numbering), human kappa constant region
B4 was tested, and the “IC50, GM-CSF release under IL-36 α stimulation (NCI/ADR-RES cells)” value (human IL-36R [1]) was 0.0328 µg/mL, the “IC50, GM-CSF release under IL-36 β stimulation (NCI/ADR-RES cells)” value (human IL-36R [1]) was 0.0224 µg/mL and the “IC50, GM-CSF release under IL-36 γ stimulation (NCI/ADR-RES cells)” value (human IL-36R [1]) was 0.0288 µg/mL. For the same binder, the “IC50, IL-6 release under IL-36 α stimulation (NCI/ADR-RES cells)” value (human IL-36R [1]) was 0.0332 µg/mL, the “IC50, IL-6 release under IL-36 β stimulation (NCI/ADR-RES cells)” value (human IL-36R [1]) was 0.0204 µg/mL and the “IC50, IL-6 release under IL-36 γ stimulation (NCI/ADR-RES cells)” value (human IL-36R [1]) was 0.0198 µg/mL. For the same binder, the “IC50, IL-8 release under IL-36 α stimulation (NCI/ADR-RES cells)” value (human IL-36R [1]) was 0.0439 µg/mL, the “IC50, IL-8 release under IL-36 β stimulation (NCI/ADR-RES cells)” value (human IL-36R [1]) was 0.0292 µg/mL and the “IC50, IL-8 release under IL-36 γ stimulation (NCI/ADR-RES cells)” value (human IL-36R [1]) was 0.0284 µg/mL. For the same binder, the “IC50, pNF-κB … (NCI/ADR-RES cells)” value (human IL-36R [1]) was 115 ng/ml, the “HuIL-6 detected in HIF under IL-36β stimulation IC50” value (human IL-36R [2]) was 0.0837 µg/mL and the “HuIL-6 detected in HIF under IL-36α stimulation IC50” value (human IL-36R [5]) was 0.146 µg/mL. For the same binder, the “pNFκB detected in HIF under IL-36β stimulation IC50” value (human IL-36R [6]) was 0.1 µg/mL, the Kd [7] was 0.0254 nM and the koff [7] was 1.68e-05 s⁻¹. For the same binder, the kon [7] was 660000 M⁻¹ s⁻¹.
